# Results as given in patent CN112979797A (CHINESE ACAD INSPECTION & QUARANTINE, dated 2021).
# T1: 原核表达的带HIS标签的重组蛋白SBV-N (SBV, UniProt H2AM13 1-233)
# T1 sequence: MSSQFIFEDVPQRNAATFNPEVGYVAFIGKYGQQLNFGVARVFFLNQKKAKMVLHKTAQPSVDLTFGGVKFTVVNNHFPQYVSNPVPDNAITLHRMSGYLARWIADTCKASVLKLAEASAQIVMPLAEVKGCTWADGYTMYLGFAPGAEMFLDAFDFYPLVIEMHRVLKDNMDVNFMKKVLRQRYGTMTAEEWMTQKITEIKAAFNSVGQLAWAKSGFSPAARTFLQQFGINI
# Target: T1, 原核表达的带HIS标签的重组蛋白SBV-N
# Assay: Western blot, hybridoma supernatant on His-tagged recombinant protein
binder,measurement,value
"单克隆抗体2D3 (antibody, V domains shown, also called 2D3单抗; 2D3抗体) VH: EVQLQQSKTELVRSGASVKLSCTASGFNIKDYFIHWVKQRPEQGLEWIGWIDPENGDTEYAPKFQGKATMTADTSSNTAYLQLGSLTSEDTAVYYCYSRGWHLENLEYWGQGTTLTVSS VL: DVLMTQTPLSLPVSLGDQASISCRSSQSIVHSNGNTYLEWYLQKPGQSPKLLIYKVSNRFSGVPDRFSGSGSGTDFTLKISRVEAEDLGVYYCFQGSHVPRTFGGGTKLEIKR",binding result,no binding
